Results reported in the DeepSol protein solubility set.

Assay: soluble on expression in E. coli; label from the status in PepcDB or PDB records

Sequence | soluble on expression in E. coli
MGSDKIHHHHHHMDYTPRLQPARLIKRYKRFLADVVTPEGETLTLHCANTGAMTGCATPGDTVWYSTSDNPKRKYPQSWELTETQQNHWICVNTLRANTLLYEALLENRIEELAGYSDIKTEVKYGTENSRIDLLLQAPDRIDCYIEVKSVTLLQHECGYFPDAVTLRGQKHLRELQQMVSNGKRAVLFFAVLHSGIQQVSPARHIDSRYAELFIEAQQAGVEILCYGSTLCPDGIKLTNKLPLLG | not soluble
MSLKADPRGTGSRTPGTATGGKTVPTVPPAPTADRRTTVDVTALLERGRTLATPVLRAAVDRLAPPMDTVAAYHFGWIDAQGNPADGDGGKAVRPALAVLSAEVTGAAPEVGVPGAVAVELVHNFSLLHDDLMDGDEQRRHRDTVWKVHGPAQAILVGDALFALANEVLLELGTVEAGRATRRLTKASRSLIDGQAQDISYEHRDRVSVEECLEMEGNKTGALLACASSIGAVLGGADERTADTLEKYGYHLGLAFQAVDDLLGIWGDPDATGKQTWSDLRQRKKSLPVVAALAAGGAASERLGEILTADAKASDFANFSEEEFAARAALIEEAGGREWTADEARRQHTIAIEALDAVDMPDRVRDRFTALADFVVVRKREGHHHHHH | soluble
MQVLSMIFTREILEEAINYGLTKNTTSFTRIKAGIYKTEREKHRDLPSHYIYTACEDASERLDSFNKLKKRGRSYTDRPSVRRVTVHLDDHLWKFSLNVISIATKRGRVCISPIFPKIFWRYYNDNWLIASGARFKLLKGNVVEFFIVFKKDVKSYDPRGFIPVDLNEDSVSVLINGKPILLETNTRMITLGYEYKRRSITNGRSTKDREVRRKLRERDKKLDVRRKFAKLIVKEAFGSRSAIVLEDLPRGVPEHMVKGVKDKQLRLRIYRSAFSSMKNAIVEKAREFGVPVILVDPSYTSSICPVHGSKIIYQPDGGSAPRVGVCGKGGERWHRDVVALYNLRKRAGDVSPVPLGSKESHDPPVVQVVEGLEHHHHHH | soluble
MSDNALTSSRRFGGIARLYGDSALAHFSQAHVCVVGVGGVGSWAVEALARTGIGRLTLIDLDNVAESNVNRQLHALTGDFGKAKVTALRERITQINPQCEVFEIEDFVTEDNLPEYFGKGFDFVIDAIDQVRVKAAMAAYFVERKQPFVLSGGAGGQKNPALIQTADLSRVTHDPLLANLRYTLRKRYGFSRDTKANMRVPCVYSTENIVPPQSREACSADAAPQGLSCAGYGASMLVTASFGLYCAQAAVEHIADKKLEHHHHHH | soluble
MSLKRVMTLADIALLANVSKSTASRALRNNPLINKNTRELVQEIALKHNFKVNATASNLRTQKTNTIAVVVMFDQKSGQAISDPFLMEILGTIADELTHFGYDMLLTTTKTATHDWYSYYYESKRADGLIIIGQGEHDQRIEALISTDLPFIVWGTEIHEKNYTTVGSDNRKGGYLAVSHLIEQGCQRIAFLGDINHTEVEQRWLGYQDAVAEAGLVVEDKLQIKTDFTSVDGYQSLRDHCLNDDVPIDGVFAVSDAIALGATKYLFEQNITIPKQVAVIGFDDISMSEYCSPSLSTIRQNTAAGGRLLVKLMLDKLNHLPVDSQLLNVEMIQRQSSEGHHHHHH | soluble
MANAIRLPPEAYPMSIAAQKNDDDRQARALAALAEKPDGIVEAIAAKAEVAPAEILAILPQGAAVSAPADRFDAIWNEMRGWGEILMIVQTGDIVLEVPGHLPEGTESHGWFNIHGDSPIGGHIKKDNCAAITFVDRGFHGRRSCSVWFMNAAGGAMFKIFVRRDENKELLAGQLAKFEELRDGFRGLEHHHHHH | soluble
MIVIKPFILACLIVKKRKDILGKCLYSLESIGGEIIIVDNGSTDKKKEIAQKLTDKVYDFKWMNNFVEARNFAASKVSGTWIIAVDADECIDINNFVAAMEEIKSYKDKISIFLVEIMSFVGDNGEEITVNTMARLYKNDGSVYFLWWNV | not soluble
MGSDKIHHHHHHMTKHLYIDEYGSFVGKTSERLTVSQGGELKAEIPLSRLKSVNILKGGISLSSDIIEACSLRGIKIFFLDFRNVAHTAITSTANHAVANVRKAQFLTIESNHGREIARTLIVGKLKNQRATLQYFYKYLKNTDKQSKKLESAIEKIKETIESLKNIELSNNKHWSQIIMGKEGGMAAIYFDAIGAELLEECDFTTRIGRGAEDIMNSALNYGYAILTSFVWQSIINAGLEAYAGVLHTNRPGKPSLVLDVMEEYRAWVVDRNIIKLRSSLAGKKELDAELKKKIITEINATMNKKHLYNGKNLSLQGVMQRQVYRLVGAFMQQNRYKSYIFKW | not soluble
MIDPVGLPDTFVRIVLVGSGNLATQTALALSEAASPPVQVWSRNAEHAERLASMLPGATATDRTEELLCDAELYLLAVSDHALESVAATLPPTSGIWAHTAGSMPMDTLRPYHAQIGVFYPLQTFSRERRVDYSSIPIYIEGNDESVVRLLESVARLISRNVLRCTSEQRLYLHLAAVFACNFTNHLYALSEQMLAAHGLPPRSLAPLIAETAAKVQEMSATEAQTGPAKRDDTNTLQKHLGLLNPYPDWQEIYRILSDSIRKMYGPKEQ | not soluble
MMRSLLSHPQPSHAIRSPAAACALALFLSGCQSLGTDGLTASNAPAEISGPAASAIAGDMVGRLAEQIGPGTATVSLKQDNSPFGQALEAALKGWGYAVVTDQKTDGVSRIVPLAYVVIPFEGQVLTRLSTNSIELGRAYIVTTSGAQPASALAVMKRGLEHHHHHH | not soluble
MPHFYEYLEFNRDEDREHQLDVYVGVQLEADTIAKITALETASEWLIMAEPYCPDCVEVVAYFQRISQLNPAINVKYVARKDNTQRHYFDSDRQQQAVIAVEKIPAIFNISSAETELVLAEFPAFLKAEMAEHPMQFDALKADFRMGKFGKRLEAELVEILTR | not soluble
MGVFRTRFTETFGVEHPIMQGGMQWVGRAEMAAAVANAGGLATLSALTQPSPEALAAEIARCRELTDRPFGVNLTLLPTQKPVPYAEYRAAIIEAGIRVVETAGNDPGEHIAEFRRHGVKVIHKCTAVRHALKAERLGVDAVSIDGFECAGHPGEDDIPGLVLLPAAANRLRVPIIASGGFADGRGLVAALALGADAINMGTRFLATRECPIHPAVKAAIRAADERSTDLIMRSLRNTARVARNAISQEVLAIEARGGAGYADIAALVSGQRGRQVYQQGDTDLGIWSAGMVQGLIDDEPACAELLRDIVEQARQLVRQRLEGMLAGV | soluble
MSLKIGPILRSNVNRSITGDFDFREADLSLIRNFPNARVSLRDITLTTAAPFEGDTLFKAREAYLVMGIGELFKGAGEPIGIRELFVSGADLRLRLDAEERPNYLVAAEDPAATGATAASDGFTFDLQGYQIADSKISYMDQSSGISFLLEDIQHTGSGDLSLAESRLETRTDARISLGMDSVQYLDRNSLQLDARIGIDLETDTYTFLENEGLINQMPLVFEGSVQLVEEGQEIDLDFRTPSSDFKNFLALIPEAYSKSLEEVRTSGQFTLEGSITGRSDDTRIPNLDIRMEAVDAAFRYPDLPKGIDDINFSARLLNTTGIAGDTYLEIPAAGFRIDQDVFNMSGNIRSLTGNPEVDAALKGTINLASLDQAYPVELAPGLSGVLRADVQTAFDMASVENKQYGNTRTSGSLQLSNLNFRADNFAEPVKIREARLRFDPVEARLESLSGSLGQSDFTLSGTVRDYLGYLLADGILKGQFSLTSNQLLVSDFMSPEDPGQAEKETGADARASGQAPDGGPAFQIPAAIDVSIRGQAASVVYDGLPLRNVSGNLQIRDQELQLRDVRSDALDGKLALNGTVATGEGLPRFNMDLGIDGFRIRETLESIELFETLAPIASIVEGKLNSRVQLSGLLNSDFSPDLMSLAGNVVAEVLASDITGTRAKVLEALDARMDFFNMEDLDLKGLKTALNFENGLVTVKPFSFTYRDMEVSVAGSHSFDQQLNYTATLQVPAKYLGSDVNRLVTELQEPGLKEGHHHHHH | not soluble
MSQFISLTQYQLIEVQGADAEKYLQGQLTSDVVRLASGATTLTAHCDPKGKMNAIYRLFKVSSEQFFLLVKKDILPSGLDALKKYAVFSKVSFDLRDWQIIGVIGEKCGKITPNFSLEIDEKRSILLNETELPVNFNGDEKIWEVADIQAGLPNLSPQTQNEFIPQALNLQAIEQAISFTKGCYIGQETVARAKYRGANKRAMFIFKVQTQQEAEIGSEIEMQLEANWRKTGTITSAVNLDGVLWLQVVMNNDIDSEQQFRLLNSEILLERVQLPYSITELEHHHHHH | soluble
MKILLYFEGEKILAKSGIGRALDHQKRALSEVGIEYTLDADCSDYDILHINTYGVNSHRMVRKARKLGKKVIYHAHSTEEDFRNSFIGSNQLAPLVKKYLISLYSKADHLITPTPYSKTLLEGYGIKVPISAISNGIDLSRFYPSEEKEQKFREYFKIDEEKKVIICVGLFFERKGITDFIEVARQLPEYQFIWFGDTPMYSIPKNIRQLVKEDHPENVIFPGYIKGDVIEGAYAAANLFFFPSREETEGIVVLEALASQQQVLVRDIPVYQGWLVANENCYMGHSIEEFKKYIEGLLEGKIPSTREAGYQVAEQRSIKQIGYELKEVYETVLS | not soluble
SPGQGTQSENSCTHFPGNLPNMLRDLRDAFSRVKTFFQMKDQLDNLLLKESLLEDFKGYLGCQALSEMIQFYLEEVMPQAENQDPDIKAHVNSLGENLKTLRLRLRRCHRFLPCENKSKAVEQVKNAFNKLQEKGIYKAMSEFDIFINYIEAYMTMKIRN | soluble
THPVEAAERNYERARAELNQANEDVARNQERQAKAVQVYNSRKSELDAANKTLADAIAEIKQFNRFAHDPMAGGHRMWQMAGLKAQRAQTDVNNKQAAFDAAAKEKSDADAALSAAQERRKQKENKEKDAKDKLD | soluble
MISHSELRKLFYSADAVCFDVDSTVIREEGIDELAKICGVEDAVSEMTRRAMGGAVPFKAALTERLALIQPSREQVQRLIAEQPPHLTPGIRELVSRLQERNVQVFLISGGFRSIVEHVASKLNIPATNVFANRLKFYFNGEYAGFDETQPTAESGGKGKVIKLLKEKFHFKKIIMIGDGATDMEACPPADAFIGFGGNVIRQQVKDNAKWYITDFVELLGELEE | soluble
MADPTFAEHVATTNSRLASLRANLIDVSTFPEACSELTKWCQDQRAFTAHFEDNLMMALEAAMDYGTRENYDYMLTHGLVGACFTHRKHLSKPAATRIGRWYEQMRRLKKNGGKRKRAPPKPKDPALQASSQPTGTLPVLTSPSCPQNGQQLPTENNNFMFSPNSSDGLVLVIFSSSINFSLKIRVNAKKRKF | not soluble
SSSRGFNIKARGLCNNNNGGGGTGAKCGRWNPTVEQVKLLTDLFKAGLRTPSTDQIQKISMELSFYGKIESKNVFYWFQNHKARERQKCRKISTVKFDHRQDTDLSKPRRDNVRRHQLPAKG | soluble
MRKIGLLFITIFCLLACKNNSSRISLEGEIKGLTNDTLYLYGTDALYDRIDTIYAEKGKFSYNLNIDSTVIDTLTTAVLLINGHVEYPVFLDKGNQITIKGNIDDLSYLDINGNEPNTSLSLFMKEQRGLGSASDKMMQEKAETFIRQHNSSLASVYLLDKYFVQTPQPDYIKIKEITEAMTGALLDRPYIENISDYIDQLEKVTVGKSAPYFSLPNEKGEKLSRSAERFRNRYLLLNFWASWCDPQPEANAELKRLNKEYKKNKNFAMLGISLDIDREAWETAIKKDTLSWDQVCDFTGLSSETAKQYAILTLPTNILLSPTGKILARDIQGEALTGKLKELLKTEEKKTGKSIR | not soluble
MGSDKIHHHHHHMIDEIKSGKYKHGDKLPTEKELMERFNASRETVRKALERLVVKNLVIRKPGLGTFVNIEKKNKVVGILVQQITSYIFPYIALGAEEVLFANGYKMLLGNASEDPHKERQIINEWLEVGVDGLIIDPVYSATKRSNRDLIEDMAKKGTKVVLVHTNWDIEGVGSVVLDDWYGGEKAAEIFYQYGHRNVAVLYKTIHLPSVVRAQAFLKRGRELGFEKVHEKSFHVSEFTGIVMQSAFELLSLPKDQRPTAVFCYNDATALQFFLAAKRMGLKIPEDVSVIGFDDAPIGDFREILTTFEHPKEEVGKKAVEILLKMIDGEKPEKYVFKPKLIMRESVTYPKK | not soluble
